# T1: HMGA2 (high-mobility-group protein AT-hook 2) (mammalian (species ), UniProt P52926 1-109)
# T1 sequence: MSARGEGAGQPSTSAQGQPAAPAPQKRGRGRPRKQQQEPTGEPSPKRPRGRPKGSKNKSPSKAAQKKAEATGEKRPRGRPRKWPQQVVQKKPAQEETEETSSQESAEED
# B1: FL842/FL843 (SELEX1 duplex) (dsDNA)
# DNA 1: CCCCCCATATTCGCGATTATTGCGC
# DNA 2: GCGCAATAATCGCGAATATGGGGGG
# Molecular target: T1, HMGA2 (high-mobility-group protein …)
# Assay: PDI-ELISA
binder,measurement,value
B1,binding result,binds
